Experimental findings from publication PMC8427231, “Mechanism of dimerization and structural features of human LI-cadherin” (The Journal of Biological Chemistry, 2021) are described below.

To fix the notation:
B1: human LI-cadherin EC1-4 [modified: N-glycans (four modelled on chain A, two on chain B of the crystal structure; sites not printed); N-glycans (four modelled on chain A, two on chain B of the crystal structure; sites not … (parent)
chain: QEGKFSGPLKPMTFSIYEGQEPSQIIFQFKANPPAVTFELTGETDNIFVIEREGLLYYNRALDRETRSTHNLQVAALDANGIIVEGPVPITIKVKDINDNRPTFLQSKYEGSVRQNSRPGKPFLYVNATDLDDPATPNGQLYYQIVIQLPMINNVMYFQINNKTGAISLTREGSQELNPAKNPSYNLVISVKDMGGQSENSFSDTTSVDIIVTENIWKAPKPVEMVENSTDPHPIKITQVRWNDPGAQYSLVDKEKLPRFPFSIDQEGDIYVTQPLDREEKDAYVFYAVAKDEYGKPLSYPLEIHVKVKDINDNPPTCPSPVTVFEVQENERLGNSIGTLTAHDRDEENTANSFLNYRIVEQTPKLPMDGLFLIQTYAGMLQLAKQSLKKQDTPQYNLTIEVSDKDFKTLCFVQINVID

Variants of B1 are the subject of one assay. In words: SEC-MALS. Particulars: with itself; injected at 100 μM; read off a plot.
As for chain 1 L333A, the screen value was found to be 54.8 kDa.
Consider chain 1 F354A, for which the screen value was found to be 55.1 kDa.
As for chain 1 N154A, the screen value came out at 53.1 kDa.
As for chain 1 N200A, the screen value amounted to 52.2 kDa.
Same read-out and setting: the result for chain 1 Y377A reads 53.6 kDa; that for chain 1 Q382A, 52.7 kDa.
Regarding chain 1 F202A, the screen value was 49.5 kDa.
With chain 1 N349A, the screen value came to 52.4 kDa.
As for chain 1 L149A, the screen value turned out to be 51.1 kDa.
On the same count and under the same terms, the result for chain 1 I147A reads 50.5 kDa; that for chain 1 V188A, 51.5 kDa.

The same assay, now with this note: with itself; injected at 50 μM; read off a plot.
As for chain 1 F202A, the screen value is 58 kDa.
